We go through one protein from article PMC10985318.

In general, Km refers to the substrate concentration at which the rate is half of its maximum. As a reminder, the kcat is the number of substrate molecules converted per active site and unit of time at saturation.

Substrate in this data set: Nc1ncnc2c1ncn2[C@@H]1O[C@H](COP(=O)(O)OP(=O)(O)OP(=O)(O)O)[C@@H](O)[C@H]1O
In words: purified protein. The settings on record: MgATP, MgCl2 twice the ATP concentration, 25 mM Tris/HCl pH 8.0, 60 mM KCl, 25 °C, at saturating MgATP, non-Michaelis kinetics, local double-reciprocal fit of three consecutive concentrations.

B1: V1ΔHC (S. cerevisiae V1-ATPase lacking subunits H and C) (Saccharomyces cerevisiae S288C) (protein)
chain 1: AGAIENARKEIKRISLEDHAESEYGAIYSVSGPVVIAENMIGCAMYELVKVGHDNLVGEVIRIDGDKATIQVYEETAGLTVGDPVLRTGKPLSVELGPGLMETIYDGIQRPLKAIKEESQSIYIPRGIDTPALDRTIKWQFTPGKFQVGDHISGGDIYGSVFENSLISSHKILLPPRSRGTITWIAPAGEYTLDEKILEVEFDGKKSDFTLYHTWPVRVPRPVTEKLSADYPLLTGQRVLDALFPCVQGGTTCIPGAFGCGKTVISQSLSKYSNSDAIIYVG
chain 2: CGERGNEMAEVLMEFPELYTEMSGTKEPIMKRTTLVANTSNMPVAAREASIYTGITLAEYFRDQGKNVSMIADSSSRWAEALREISGRLGEMPADQGFPAYLGAKLASFYERAGKAVALGSPDRTGSVSIVAAVSPAGGDFSDPVTTATLGITQVFWGLDKKLAQRKHFPSINTSVSYSKYTNVLNKFYDSNYPEFPVLRDRMKEILSNAEELEQVVQLVGKSALSDSDKITLDVATLIKEDFLQQNGYSTYDAFCPIWKTFDMMRAFISYHDEAQKAVANGANWSKLADSTGDVKHAVSSSKFFEPSRGEKEVHGEFEKLLSTMQERFAESTD
chain 3: VLSDKELFAINKKAVEQGFNVKPRLNYNTVSGVNGPLVILEKVKFPRYNEIVNLTLPDGTVRQGQVLEIRGDRAIVQVFEGTSGIDVKKTTVEFTGESLRIPVSEDMLGRIFDGSGRPIDNGPKVFAEDYLDINGSPINPYARIYPEEMISTGVSAIDTMNSIARGQKIPIFSASGLPHNEIAAQICRQAGLVRPTKDVHDGHEENFSIVFAAMGVNLETARFFKQDFEENGSLERTSLFLNLANDPTIERIITPRLALTTAEYLAYQTERHVLTILTDMSSYADALREVSAAREEVPGRRGYPGYMYTDLSTIYERAGRVEGRNGSITQIPILTMPNDDITHPIPDLTGYITEGQIFVDRQLHNKGIYPPINVLPSLSRLMKSAIGEGMTRKDHGDVSNQLYAKYAIGKDAAAMKAVVGEEALSIEDKLSLEFLEKFEKTFITQGAYEDRTVFESLDQAWSLLRIYPKEMLNRISPKILDEFYDRARDDADEDEEDPDTRSSGKKKDASQEESLI
As for B1, the Km turned out to be 41.7 µM and the turnover number (kcat) was found to be 9.6 s⁻¹.
